{"source": "patent US20090226404A1", "about": "(published 2009)", "key": {"[1]": {"target": "T1, gp100 peptide on HLA-A*02:01 (human)", "T1 peptide": "YLEPGPVTA", "experiment": "cytolytic efficiency of the parental 296 CTL clone, peptide titration; value cited from ref. 24; T cell clone or line"}, "[2]": {"target": "T2, gp100 (209-217 analogue) peptide on HLA-A*02:01 (human)", "T2 peptide": "IMDQVPFSV", "experiment": "killing"}, "[3]": {"target": "T1, gp100 peptide on HLA-A*02:01", "experiment": "cytolytic efficiency of retrovirally transduced T cells, peptide titration; value taken from earlier work (ref. 24); full-length, on cells"}, "[4]": {"target": "T1, gp100 peptide on HLA-A*02:01", "experiment": "51Cr release with peptide titrated on T2 cells; RNA-electroporated CD8+ T cells 24 h after electroporation; ED50 is the peptide concentration at 50% of maximum lysis; lower end of the range; full-length, on cells", "protocol": "(§1) CD8⁺ T cells were electroporated with EGFP RNA (Neg) or RNA coding for the TCR α and β chain, and were used as effector cells in cytotoxicity assays 24 h after electroporation. T2 cells loaded with different concentrations of gp100₂₈₀₋₂₈₈ peptide (as indicated) were used as target cells, and % lysis was calculated. The target to effector cell ratio was 1:15. The peptide concentration corresponding to 50% of the maximum lysis (ED₅₀), used to measure the cytolytic efficiency, is indicated by the dotted line. Average values of triplicates±SD are shown. Data of one (out of five) representative T cell donor is shown.\n(§2) From previous published work, we know that the cytolytic efficiency of the parental 296 CTL clone was preserved following retroviral transduction of TCR genes into T cells. To test the avidity of the TCR RNA-transfected T cells, we performed a cytotoxicity assay (24 h after electroporation) in which we titrated the gp100₂₈₀₋₂₈₈ peptide on T2 target cells (FIG. 6). The peptide concentration corresponding to 50% of the maximum lysis (i.e. ED₅₀) of the TCR RNA-transfected T cells ranged from 300-1000 pM in three independent experiments (FIG. 6). This is in the same range as the cytolytic efficiency of the retrovirally transduced T cells (ED₅₀=300 pM). Both approximate the cytolytic efficiency of the parental 296 CTL clone, which has an ED₅₀ of 50 pM [24]. […]"}, "[5]": {"target": "T1, gp100 peptide on HLA-A*02:01", "experiment": "51Cr release with peptide titrated on T2 cells; RNA-electroporated CD8+ T cells 24 h after electroporation; upper end of the range; full-length, on cells", "protocol": "as §1, §2"}}}
{"binder": "gp100-specific 296 TCR (TCR, V domains shown) Valpha: GENVEQHPSTLSVQEGDSAVIKCTYSDSASNYFPWYKQELGKGPQLIIDIRSNVGEKKDQRIAVTLNKTAKHFSLHITETQPEDSAVYFCAASTSGGTSYGKLTFGQGTILTVHP Vbeta: EAQVTQNPRYLITVTGKKLTVTCSQNMNHEYMSWYRQDPGLGLRQIYYSMNVEVTDKGDVPEGYKVSRKEKRNFPLILESPSPNQTSLYFCASSLGSSYEQYFGPGTRLTVT", "values": [{"measurement": "EC50 of peptide", "setting": "[1]", "result": 0.05, "unit": "nM"}, {"measurement": "binding result", "setting": "[2]", "result": "no recognition"}, {"measurement": "EC50 of peptide", "setting": "[3]", "result": 0.3, "unit": "nM"}, {"measurement": "EC50 of peptide", "setting": "[4]", "result": "≥ 0.3", "unit": "nM"}, {"measurement": "EC50 of peptide", "setting": "[5]", "result": "≤ 1", "unit": "nM"}]}
